Data reported in PMC11476435, “Functional Relationships between L1CAM, LC3, ATG12, and Aβ” (International Journal of Molecular Sciences, 2024).

B1: recombinant human ATG12 (autophagy-related protein 12) (natural protein, UniProt O94817 1-140, looked up)
chain: MAEEPQSVLQLPTSIAAGGEGLTDVSPETTTPEPPSSAAVSPGTEEPAGDTKKKIDILLKAVGDTPIMKTKKWAVERTRTIQGLIDFIKKFLKLVASEQLFIYVNQSFAPSPDQEVGTLYECFGSDGKLVLHYCKSQAWG
notes: source: bought: BIOZOL

Tests used:
Details in all cases: both partners purified
[1] = target: recombinant human LC3B (microtubule-associated protein 1 light-chain 3) (human, UniProt Q9GZQ8 1-120); experiment: ELISA; competition: recombinant LC3B, ATG12 or Aβ1-42 coated; L1Fc in solution alone or with a 20-fold molar excess of Aβ, L1-LIR peptide or mutated LIR peptide as competitor, 1 h at room temperature; detected with HRP-coupled anti-Fc antibody
[2] = target: B1; experiment: as above
[3] = target: T1, L1Fc, extracellular domain of mouse L1 fused to Fc from human IgG (mouse, UniProt P11627 35-1112); experiment: ELISA; recombinant human ATG12 (10 µg/mL) coated on 384-well plates; different concentrations (1–200 µg/mL) of L1Fc or CHL1Fc in solution, 1 h at room temperature; detected with HRP-coupled anti-Fc antibody
T1 construct: The methods say that the Fc fusion presents dimers, not monomeric domains; also called extracellular domain of L1; soluble L1Fc chimera; source: recombinant, production and purification described in [111]
T1 sequence (P11627 35-1112): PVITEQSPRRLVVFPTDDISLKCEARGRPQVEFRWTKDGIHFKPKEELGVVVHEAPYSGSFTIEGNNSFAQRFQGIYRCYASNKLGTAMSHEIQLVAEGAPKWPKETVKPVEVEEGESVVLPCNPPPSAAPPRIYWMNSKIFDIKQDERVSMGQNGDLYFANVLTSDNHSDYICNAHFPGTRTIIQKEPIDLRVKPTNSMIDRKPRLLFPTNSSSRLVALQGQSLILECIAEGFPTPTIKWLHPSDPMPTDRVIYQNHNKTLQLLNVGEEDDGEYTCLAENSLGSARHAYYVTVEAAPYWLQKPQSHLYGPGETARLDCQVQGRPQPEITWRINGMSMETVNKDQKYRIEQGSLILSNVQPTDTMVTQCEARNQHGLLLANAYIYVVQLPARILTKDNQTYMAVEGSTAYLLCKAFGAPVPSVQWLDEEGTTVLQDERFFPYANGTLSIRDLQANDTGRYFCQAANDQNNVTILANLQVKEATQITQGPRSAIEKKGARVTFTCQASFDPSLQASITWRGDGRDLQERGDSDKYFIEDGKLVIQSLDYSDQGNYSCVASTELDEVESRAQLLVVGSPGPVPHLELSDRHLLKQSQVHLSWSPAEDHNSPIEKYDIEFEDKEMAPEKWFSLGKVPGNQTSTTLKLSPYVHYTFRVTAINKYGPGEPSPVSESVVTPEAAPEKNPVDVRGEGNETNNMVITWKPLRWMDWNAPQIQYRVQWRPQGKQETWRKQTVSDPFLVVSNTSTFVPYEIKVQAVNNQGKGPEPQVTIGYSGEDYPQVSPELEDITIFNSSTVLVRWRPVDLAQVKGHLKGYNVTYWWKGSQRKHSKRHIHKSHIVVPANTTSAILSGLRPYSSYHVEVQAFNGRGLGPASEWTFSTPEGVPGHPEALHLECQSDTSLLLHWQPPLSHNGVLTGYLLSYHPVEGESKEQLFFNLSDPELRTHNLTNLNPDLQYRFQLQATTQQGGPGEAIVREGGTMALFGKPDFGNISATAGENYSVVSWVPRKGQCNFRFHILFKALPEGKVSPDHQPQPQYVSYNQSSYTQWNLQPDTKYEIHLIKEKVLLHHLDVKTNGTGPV

binding result [1] | binding result [2] | binding result [3] | Binder
binds | binds |  | SHNGVLTGYLLSYHPVEGESKEQ (23-amino-acid peptide of mouse L1 with the LIR motif 952LSYHPV957 of the fourth fibronectin type III homologous repeat; source: synthetic peptide, bought: Schafer-N) [mouse L1-LIR peptide containing the extracellular LC3-interacting region (LIR) motif of L1]
 |  | binds | B1
